Measured values reported in publication PMC10040874 (2023).

Columns and labels:
[1] = biological target: M. brevicollis CNNM CBS-pair domain (M. brevicollis); assay: ITC
[2] = biological target: M. brevicollis CNNM CBS-pair domain (M. brevicollis); assay: ITC; remark: listed apart in the source
[3] = biological target: T1, CBS-pair domain of a C. elegans CNNM protein (the one of two expressed that bound with 13 μM affinity) (C. elegans); assay: ITC; CNNM3
T1 chain: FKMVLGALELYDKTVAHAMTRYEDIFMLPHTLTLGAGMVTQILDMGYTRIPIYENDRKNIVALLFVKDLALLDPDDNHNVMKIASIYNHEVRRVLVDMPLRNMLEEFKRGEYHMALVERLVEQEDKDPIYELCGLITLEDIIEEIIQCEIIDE

[4] = biological target: T2, Toxoplasma gondii CNNM CBS-pair domain (T. gondii); assay: ITC
T2 chain: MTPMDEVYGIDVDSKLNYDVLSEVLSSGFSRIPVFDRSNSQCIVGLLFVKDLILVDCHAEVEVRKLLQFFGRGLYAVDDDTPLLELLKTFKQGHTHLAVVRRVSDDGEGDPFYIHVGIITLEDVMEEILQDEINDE

[5] = biological target: T2, Toxoplasma gondii CNNM CBS-pair domain; assay: ITC
[6] = biological target: D. rerio CNNM CBS-pair domain (D. rerio); assay: ITC
[7] = biological target: D. rerio CNNM CBS-pair domain (D. rerio); assay: ITC; remark: listed apart in the source
[8] = biological target: T3, CBS-pair domain of a C. elegans CNNM protein (the one of two expressed that bound with 1 μM affinity) (C. elegans); assay: ITC; CNNM1
T3 chain: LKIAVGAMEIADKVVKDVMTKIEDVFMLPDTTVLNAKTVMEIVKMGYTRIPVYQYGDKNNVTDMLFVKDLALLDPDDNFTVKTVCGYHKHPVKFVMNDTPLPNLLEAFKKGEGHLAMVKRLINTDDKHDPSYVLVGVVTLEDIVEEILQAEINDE

[9] = biological target: T3, CBS-pair domain of a C. elegans CNNM …; assay: ITC; CNNM1
[10] = biological target: T4, human CNNM3 CBS-pair domain (human, UniProt Q8NE01 309-452); assay: ITC
[11] = biological target: T4, human CNNM3 CBS-pair domain; assay: ITC; remark: listed apart in the source
[12] = biological target: Drosophila melanogaster CNNM CBS-pair domain, GST-tagged (D. melanogaster, UniProt A0A0B7P9G0 362-515); assay: ITC
Chain of Drosophila melanogaster CNNM CBS-pair domain, GST-tagged (A0A0B7P9G0 362-515): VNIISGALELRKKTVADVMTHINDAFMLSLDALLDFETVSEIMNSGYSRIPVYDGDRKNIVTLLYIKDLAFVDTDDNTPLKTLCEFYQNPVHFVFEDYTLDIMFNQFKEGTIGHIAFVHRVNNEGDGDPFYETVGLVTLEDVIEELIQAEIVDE

T4 sequence (Q8NE01 309-452): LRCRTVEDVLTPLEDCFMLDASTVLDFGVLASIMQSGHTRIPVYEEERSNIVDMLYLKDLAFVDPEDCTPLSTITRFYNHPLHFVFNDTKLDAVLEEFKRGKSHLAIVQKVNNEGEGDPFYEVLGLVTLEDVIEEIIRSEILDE
Chain of D. rerio CNNM CBS-pair domain (D. rerio) (chain, as listed by the source): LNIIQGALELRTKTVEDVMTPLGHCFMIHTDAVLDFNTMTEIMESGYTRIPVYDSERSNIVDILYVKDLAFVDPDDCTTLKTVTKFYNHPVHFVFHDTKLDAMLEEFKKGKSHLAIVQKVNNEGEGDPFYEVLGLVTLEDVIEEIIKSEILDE

B1: M. brevicollis PRL (enzyme)
chain: MARNHISKISHKNMRFLITDRPSDATVEDYVRVLQQENVVALCRVCEPSYDVSKLKDNGIEVHDWAFQDGAPPPDEVIDNWLRLCRETFAQHPNGFVAVHCVAGLGRAPVLVALSLIEAGMSSEDAVLFIREKRHGAINRRQLQFLQDYKRRGKAKG
Question: For B1, which Ka [1] is on record?
Answer: 3.24e+06 M⁻¹

Question: And the Kd [2]?
Answer: 300 nM

B2: Caenorhabditis elegans PRL (enzyme)
chain: MSAAVQKRASTNTVAATTYFKPAPSEIAWGKMRFLITDRPNNSSIQSYIEELEKHGARAVVRVCEPTYDTLALKEAGIDVLDWQFSDGSPPPPEVIKSWFQLCMTSFKEHPDKSIAVHCVAGLGRAPVLVAIALIEAGMKYEDAVEMIRTQRRGALNQKQLKFLETYKANGELRRLRGNVDGKQKSCCIQ
modifications: Assigning the 13 uM binder to CNNM3 is inferred from listing order (Figure 4 not in text)
Question: With B2 as the binder, how does the Kd [3] read?
Answer: 970 nM

B3: Toxoplasma gondii PRL (enzyme)
chain: MNEASSCLSPEEPRSCDNREEGTTRELRSGSHMGKGKLGHSPTTSHSELTREGSSVDCGRRGGNEEKTEEKRSEKAGAERECERKTQRPRFDGDGSSLSPRSNASRGSACSTRSCESHEKVGRTLSGDSTGRDGVCSVSSARQPSLRRKSAAEEVGREVKVDGKALDSQIELVRTKNRGKSEVTRLGRGAGSACAVSVSPLGTARHVPSGRQPSERRQSAKPLTKLSSSSSSHNKTTMVPTVMNTPTRIEAGRQKFLIFDAPSQENLPAYIEEMRAYEVTDLVRTCERTYDDKTVLASGIRPHELIFPDGEAPPDDVIDEWLTLCNAVSQQRGAIAIHCVAGLGRAPVLVAIALIEKGMDPMDAIMFIRERRKGAINRRQLQFLKGYKRRSNYKKCCGGR
Question: With B3 as the binder, how does the Kd [4] read?
Answer: 7400 nM

Question: What about the Ka [5] of the same binder?
Answer: 134000 M⁻¹

B4: D. rerio PRL (enzyme)
chain: MARMNRPAPVEVCYKNMRFLITHNPTNSTLSSFIEDLKKYGVTTVVRVCEITYDKTPLEKNGITVVDWPFDDGAPPPSKVVEDWLSLLKRRFIEEPGCCVAVHCVAGLGRAPVLVAVALIESGMKYEDAIQFIRQKRRGAINSKQLTYLEKYRPKQRLRYKHPHIFKNK
modifications: Table S2 says CNNM4 only; the choice of cnnm4a over cnnm4b is assumed
Question: B4 was tested. Which Kd [6] did it give?
Answer: 17 nM

Question: What about the Ka [7] of the same binder?
Answer: 5.84e+07 M⁻¹

B5: Caenorhabditis elegans PRL (enzyme)
chain: B2 chain
modifications: Table S2: only CNNM1 (376-530) and CNNM3 (375-527) gave protein; assigning the 1 uM binder to CNNM1 is inferred from listing order (Figure 4 not in text)
Question: What does the source list for B5?
Answer: Ka [8]: 76100 M⁻¹; Kd [9]: 13000 nM

B6: human PRL2 (enzyme)
chain: MNRPAPVEISYENMRFLITHNPTNATLNKFTEELKKYGVTTLVRVCDATYDKAPVEKEGIHVLDWPFDDGAPPPNQIVDDWLNLLKTKFREEPGCCVAVHCVAGLGRAPVLVALALIECGMKYEDAVQFIRQKRRGAFNSKQLLYLEKYRPKMRLRFRDTNGH
Question: B6 was tested. Which Kd [10] did it give?
Answer: 28 nM

Question: What about the Ka [11] of the same binder?
Answer: 3.63e+07 M⁻¹

B7: Drosophila melanogaster PRL (wild-type) (enzyme)
chain: MSITMRQKDLRPAPALIEYKGMKFLITDRPSDITINHYIMELKKNNVNTVVRVCEPSYNTDELETQGITVKDLAFEDGTFPPQQVVDEWFEVLKDKYQQNPEACVAVHCVAGLGRAPVLVALALIELGLKYEAAVEMIRDKRRGAINAKQLSFLEKYKPKARLKHKNGHKNSCSVQ
Question: With B7 as the binder, how does the Ka [12] read?
Answer: 2.84e+06 M⁻¹
